# Target: the molecule itself
# Assay: single-molecule photobleaching and fluorescence intensity analysis
protein,measurement,value
"K401-clip labeled with Alexa-647 (domain or fragment, Alexa-647 label (labeling efficiencies of 15% monomer and 58% monomer in two preparations)) not shown",stoichiometry N,2

# Source: paper PMC9282251 (Proceedings of the National Academy of Sciences of the …, 2022)
